To fix the notation:
B1: Reference C (SEQ ID NO: 3) (VHH)
VHH: EVQLLESGGGLVQPGGSLRLSCAASGFTFDTSSMLWVRQAPGKGLEWVSVIHQSGTPTYYADSVKGRFTISRDNSKNTLYLQMNSLRAEDTAVYYCAKFPSSRMKFDYWGQGTLVTVSS
notes: Heavy-chain immunoglobulin single variable domain (VH-derived domain antibody); Captured on human serum albumin; also called DOM7r-92-100
B2: Reference D+L11V+V89L (SEQ ID NO: 93) (VHH)
VHH: EVQLLESGGGVVQPGGSLRLSCAASGFTFDTSSMLWVRQAPGKGLEWVSVIHQSGTPTYYADSVKGRFTISRDNSKNTLYLQMNSLRAEDTALYYCAKFPSSRMKFDYWGQGTLVTVSS
B3: Reference D (SEQ ID NO: 4) (VHH)
VHH: EVQLLESGGGLVQPGGSLRLSCAASGFTFDTSSMLWVRQAPGKGLEWVSVIHQSGTPTYYADSVKGRFTISRDNSKNTLYLQMNSLRAEDTAVYYCAKFPSSRMKFDYWGQGTLVTVSS
notes: Captured on human serum albumin; also called DOM7r-92-104
B4: Reference D+L11V+V89L+T110K (SEQ ID NO: 94) (VHH)
VHH: EVQLLESGGGVVQPGGSLRLSCAASGFTFDTSSMLWVRQAPGKGLEWVSVIHQSGTPTYYADSVKGRFTISRDNSKNTLYLQMNSLRAEDTALYYCAKFPSSRMKFDYWGQGTLVKVSS

Experimental findings from patent US20180312578A1 (Ablynx, published 2018) are described below.

For this assay, the target named is T1, human serum albumin (human, UniProt P02768 25-609).
T1 construct: also called HSA
Kind of assay: ProteOn SPR, capture on immobilised HSA.
Description: In case of binding of pre-existing antibodies on Nanobodies captured on human serum albumin (HSA) was evaluated using the ProteOn XPR36 (Bio-Rad Laboratories, Inc.). PBS/Tween (phosphate buffered saline, pH7.4, 0.005% Tween20) was used as running buffer and the experiments were performed at 25° C. The ligand lanes of a ProteOn GLC Sensor Chip were activated with EDC/NHS (flow rate 30 μl/min) and HSA was injected at 10 μg/ml in ProteOn Acetate buffer pH4.5 (flow rate 100 μl/min) to render immobilization levels of approximately 3200 RU. After immobilization, surfaces were deactivated with ethanolamine HCl (flow rate 30 μl/min). Nanobodies were injected for 2 minutes at 45 μl/min over the HSA surface to render a Nanobody capture level of approximately 200 RU. The samples containing pre-existing antibodies were centrifuged for 2 minutes at 14,000 rpm and supernatant was diluted 1:10 in PBS-Tween20 (0.005%) before being injected for 2 minutes at 45 μl/min followed by a subsequent 400 seconds dissociation step. After each cycle (i.e. before a new Nanobody capture and blood sample injection step) the HSA surfaces were regenerated with a 2 minute injection of HCl (100 mM) at 45 μl/min. Sensorgram processing and data analysis was performed with ProteOn Manager 3.1.0 (Bio-Rad Laboratories, Inc.). Sensorgrams showing pre-existing antibody binding were obtained after double referencing by subtracting 1) Nanobody-HSA dissociation and 2) non-specific binding to reference ligand lane.
As to B1, the binding result is on record as “binds”.

As to B2, the binding result is recorded as “binds”.

Consider B3, for which the binding result is recorded as “binds”.

For the molecule B4, the binding result was “binds”.
